The values below come from PMC3792889.

The target of this assay is Growth factor receptor protein binding protein 2 (Grb2), endogenous (mouse (endogenous in STHdhQ7/7, STHdhQ111/111 and Neuro2A cells)) (UniProt Q60631). Put plainly: co-IP; extracts of Neuro2A cells transfected with 23Q or 145Q Httex1 GFP; precipitated with anti-Grb2 antibody and Protein A/G beads; blot with anti-GFP; densitometry, n=3.
Sequence of UniProt Q60631 (Q60631 whole entry): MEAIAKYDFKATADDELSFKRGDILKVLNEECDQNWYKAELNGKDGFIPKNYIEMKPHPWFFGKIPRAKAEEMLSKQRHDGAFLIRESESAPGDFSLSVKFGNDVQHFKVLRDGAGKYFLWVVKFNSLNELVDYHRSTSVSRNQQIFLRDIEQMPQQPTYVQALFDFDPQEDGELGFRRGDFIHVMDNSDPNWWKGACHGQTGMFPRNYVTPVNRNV

The substance 145Q Htt exon1 GFP (domain or fragment) displayed a fold precipitation against 23Q Httex1 GFP of 2 fold.
